In US20070053889A1 (AMSTERDAM MOLECULAR THERAPEUTICS AMT IP B V, published 2007):

Biological target: T1, integrin α4β7 expressed on transduced human CD4+ T cells (human, UniProt P13612 34-1032; P26010 20-798)
T1 construct: whole, on cells; Endogenous integrin on sorted human CD4+ cells transduced with the GFP or IL-10-GFP retroviral vector; The cells were CFDSE-labelled in the adhesion assay; also called αA4β7; gut-homing molecule α4β7
Experiment: cell adhesion assay with blocking mAbs
Experimental: Adhesion of sorted CD4⁺ cells, transduced with GFP (1 donor) or IL-10-GFP (2 donors), to MAdCAM-1 transfected 293T cells was determined after preincubation with or without the following mAbs: 145 2C11 (control), act-1 (αA4β7) or MECA-367 (αMAdCAM-1). Fluorescent-labelled CD4⁺ cells were added to a 96 well plate that contained confluent MAdCAM-1 transfected 293T cells or control 293T cells. Relative binding inhibition was referred to the maximum binding achieved in the absence of mAbs (as described in Materials and Methods).
We investigated whether transduced CD4⁺ cells were able to bind to the mucosal addressin MAdCAM-1 measuring their adhesion to 293T cells stably expressing the murine MAdCAM cDNA (kindly provided by Dr. S. Fong, Genentech Inc., San Fransisco, Calif., USA). […] Fluorescence was measured in a Cytofluor plate reader (Perceptive Biosystems, Frarningham, Mass., USA) before and after washing. The adherence was calculated as the percentage of fluorescent cells remaining after washing. The maximum binding was calculated as the difference in adherence to MAdCAM-1 transfected and control 293T cells.

T1 sequence (P13612 34-1032, chain 1 of 2): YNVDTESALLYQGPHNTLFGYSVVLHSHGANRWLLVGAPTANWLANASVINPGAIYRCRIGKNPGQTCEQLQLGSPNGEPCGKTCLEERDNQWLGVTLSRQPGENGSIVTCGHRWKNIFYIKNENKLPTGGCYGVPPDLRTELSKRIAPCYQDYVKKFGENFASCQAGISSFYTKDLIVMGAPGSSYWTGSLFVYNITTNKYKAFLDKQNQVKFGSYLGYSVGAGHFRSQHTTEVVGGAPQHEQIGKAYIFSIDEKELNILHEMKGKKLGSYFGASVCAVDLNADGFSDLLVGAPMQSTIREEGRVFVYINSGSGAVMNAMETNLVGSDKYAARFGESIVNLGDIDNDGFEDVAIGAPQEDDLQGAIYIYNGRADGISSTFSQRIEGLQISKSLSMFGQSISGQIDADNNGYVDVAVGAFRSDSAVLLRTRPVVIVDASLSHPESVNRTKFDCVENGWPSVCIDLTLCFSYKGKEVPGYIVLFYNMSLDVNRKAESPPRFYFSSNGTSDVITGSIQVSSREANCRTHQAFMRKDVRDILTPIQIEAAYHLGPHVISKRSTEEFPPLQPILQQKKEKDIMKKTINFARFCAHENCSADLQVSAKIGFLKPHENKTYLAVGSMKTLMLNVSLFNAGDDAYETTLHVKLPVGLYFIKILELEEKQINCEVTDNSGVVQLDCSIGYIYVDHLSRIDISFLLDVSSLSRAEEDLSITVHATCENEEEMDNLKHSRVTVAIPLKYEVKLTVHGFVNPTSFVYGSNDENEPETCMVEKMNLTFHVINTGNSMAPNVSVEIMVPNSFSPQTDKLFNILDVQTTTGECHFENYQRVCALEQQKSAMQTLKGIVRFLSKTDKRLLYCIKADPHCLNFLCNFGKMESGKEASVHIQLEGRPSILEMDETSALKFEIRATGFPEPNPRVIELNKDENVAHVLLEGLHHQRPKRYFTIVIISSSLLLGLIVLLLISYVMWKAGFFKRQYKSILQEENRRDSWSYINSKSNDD
T1 sequence (P26010 20-798, chain 2 of 2): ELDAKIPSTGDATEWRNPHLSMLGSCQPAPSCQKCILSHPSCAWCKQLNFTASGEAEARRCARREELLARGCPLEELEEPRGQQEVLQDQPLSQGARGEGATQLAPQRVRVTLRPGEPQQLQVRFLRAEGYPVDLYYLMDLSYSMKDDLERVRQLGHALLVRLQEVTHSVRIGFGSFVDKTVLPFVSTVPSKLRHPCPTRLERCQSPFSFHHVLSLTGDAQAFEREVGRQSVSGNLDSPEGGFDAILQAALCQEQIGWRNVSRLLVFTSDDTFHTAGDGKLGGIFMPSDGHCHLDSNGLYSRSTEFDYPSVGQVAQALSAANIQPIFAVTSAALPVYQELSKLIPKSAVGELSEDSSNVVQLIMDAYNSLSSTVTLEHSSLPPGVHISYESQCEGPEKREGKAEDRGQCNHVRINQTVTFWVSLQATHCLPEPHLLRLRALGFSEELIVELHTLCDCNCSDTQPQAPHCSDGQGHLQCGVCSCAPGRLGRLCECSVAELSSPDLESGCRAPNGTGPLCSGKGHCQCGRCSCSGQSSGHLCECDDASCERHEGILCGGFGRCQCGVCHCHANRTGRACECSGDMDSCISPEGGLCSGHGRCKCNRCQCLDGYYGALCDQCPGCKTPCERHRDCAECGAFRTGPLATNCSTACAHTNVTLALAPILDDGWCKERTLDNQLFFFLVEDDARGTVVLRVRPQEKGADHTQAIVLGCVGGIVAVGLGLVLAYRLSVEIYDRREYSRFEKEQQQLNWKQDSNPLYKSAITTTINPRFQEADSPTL

B1: murine MAdCAM-1 stably expressed on 293T cells (ligand, UniProt Q61826 22-405, looked up)
chain: QSFQVNPPESEVAVAMGTSLQITCSMSCDEGVARVHWRGLDTSLGSVQTLPGSSILSVRGMLSDTGTPVCVGSCGSRSFQHSVKILVYAFPDQLVVSPEFLVPGQDQVVSCTAHNIWPADPNSLSFALLLGEQRLEGAQALEPEQEEEIQEAEGTPLFRMTQRWRLPSLGTPAPPALHCQVTMQLPKLVLTHRKEIPVLQSQTSPKPPNTTSAEPYILTSSSTAEAVSTGLNITTLPSAPPYPKLSPRTLSSEGPCRPKIHQDLEAGWELLCEASCGPGVTVRWTLAPGDLATYHKREAGAQAWLSVLPPGPMVEGWFQCRQDPGGEVTNLYVPGQVTPNSSSTVVLWIGSLVLGLLALVFLAYRLWKCYRPGPRPDTSSCTHL
notes: whole, on cells; 293T cells stably expressing the murine MAdCAM cDNA (from Dr. S. Fong, Genentech); also called mucosal addressin MAdCAM-1
binding result: binds
